# B1: His-Xpress-sOMGnT(S) (Homo sapiens; M623V) (protein)
# chain: SSAEEAECHWADTELNRRRRRFCSKVEGYGSVCSCKDPTPIEFSPDPLPDNKVLNVPVAVIAGNRPNYLYRMLRSLLSAQGVSPQMITVFIDGYYEEPMDVVALFGLRGIQHTPISIKNARVSQHYKASLTATFNLFPEAKFAVVLEEDLDIAVDFFSFLSQSIHLLEEDDSLYCISAWNDQGYEHTAEDPALLYRVETMPGLGWVLRRSLYKEELEPKWPTPEKLWDWDMWMRMPEQRRGRECIIPDVSRSYHFGIVGLNMNGYFHEAYFKKHKFNTVPGVQLRNVDSLKKEAYEVEVHRLLSEAEVLDHSKNPCEDSFLPDTEGHTYVAFIRMEKDDDFTTWTQLAKCLHIWDLDVRGNHRGLWRLFRKKNHFLVVGVPASPYSVKKPPSVTPIFLEPPPKEEGAPGAPEQT
# notes: Ig kappa chain secretory signal (N); made in house; host or cells: HEK293T (transient, secreted into serum-free medium)
# Substrate: CC(=O)N[C@@H](C)C(=O)N[C@@H](C)C(=O)N1CCC[C@H]1C(=O)N[C@H](C(=O)N1CCC[C@H]1C(=O)N[C@H](C(=O)N[C@@H](C)C(=O)N[C@@H](C)C(=O)N1CCC[C@H]1C(N)=O)C(C)C)[C@@H](C)O[C@H]1O[C@H](CO)[C@@H](O)[C@H](O)[C@@H]1O
# Experiment: Substrate specificity and kinetic parameters of solubilized human OMGnT enzyme (S)
# Assay type: biochemical
# Conditions: other: 125 mM MOPS pH7.3, 0.2 mM UDP-GlcNAc, 7.5 mM MnCl2, 37° C., 2 hours, pH 7.3
# Method: […] […] The reaction mixture was then filtered with a filter Ultrafree-MC (Millipore) having a pore size of 0.22 μm to remove solids, and analyzed by Wakopak 5C18-200 column (4.6×250 mm, Wako Pure Chemical Industries, Ltd.). The separation was carried out using concentration gradient with Solution A and Solution B at a flow rate of 1.0 ml/min. […] Peptide detection was carried out at 214 nm, and the radioactivity of each fraction was assayed using a liquid scintillation counter.
# The activity of GnT-1 was assayed with a method by Yoshida et al. [Yoshida, S., Suzuki, M., Yamano, S., Takeuchi, M., Ikenaga, H., Kioka, N., Sakai, H., and Komano, T., Glycobiology, (1999), 9, 53–58] as described below. A 20 μl reaction solution was prepared by adding an enzyme source thereto so as to have a final concentration of 100 mM MES (pH 6.0), 20 mM MnCl2, 5 μM Manα1–6(Manα1–3)Manα1–6(Manα1–3)Manβ1–4GlcNAcβ1–4GlcNAc-PA(M5GN2-PA; Takara Shuzo, PA-Sugar Chain 017), 1 mM UDP-GlcNAc, 100 mM GlcNAc, 5 mM AMP, 1% Triton X-100, and 0.2% BSA. The reaction solution was incubated at 37° C. for 1 hour, and the reaction was terminated in boiling water. Thereafter, the reaction solution was analyzed by a reverse phase HPLC (Cosmosil 5C18-AR column) available from Nacalai Tesque. […]
protein,measurement,value
B1,Km,1360 µM

# — patent publication US7217548B2, “N-acetylglucosaminlytransferase and polynucleotide encoding the same” (National Institute of Advanced Industrial Science and …, priority 2000, dated 2007)
